Paper PMC7083938
Values joined by “and” are separate entries in the source; they are usually repeats but may differ in a detail not shown here. Equal entries are not always repeated. Where two headings read alike, the source gives them in different places. Each block holds one substance with its values, some of them ahead of it.

Columns and labels:
[1] = molecular target: NELL2, full length (Supplementary Fig. 9c; species not stated) (not stated (human or mouse cDNA cloned)) (UniProt Q99435); experiment: non-reducing SDS-PAGE; NELL2 and NELL2ΔCC on non-reducing (-DTT) and reducing (+DTT) SDS-PAGE; size from ladder standards
[2] = molecular target: full-ectodomain Robo surface (SPR with full-length NELL2 as analyte); experiment: SPR; mRobo3 ECD (167 RU) and mRobo1^Robo3-FN1 ECD (177 RU) biotinylated with NHS-Biotin and captured on a Biacore Series S SA chip; full-length mNELL2 as analyte; 1:1 Langmuir isotherm with a linear nonspecific-binding term; regeneration with 10 mM EDTA
[3] = molecular target: mNELL2 (full length) (mouse); experiment: SEC-MALS; Superose 6 Increase 10/300 in HBS (10 mM HEPES pH 7.2, 150 mM NaCl), Wyatt HELEOS II
[4] = molecular target: mRobo1Robo3-FN1 ECD chimera (mouse) (UniProt O89026); experiment: SPR; mRobo3 ECD (167 RU) or mRobo1Robo3-FN1 ECD (177 RU), NHS-biotin, on a Biacore Series S SA chip; mNELL2 full length or mNELL2 EGF1-6 as analyte; regeneration with 10 mM EDTA; equilibrium, 1:1 model with a linear non-specific binding term
[5] = molecular target: mRobo3 ectodomain (mouse); experiment: as above
[6] = molecular target: mRobo1 ectodomain (mouse) (UniProt O89026); experiment: SPR; mRobo1 ectodomain on a CM5 chip by random amine coupling (~1,200 RU); mNELL2 as analyte; 25 °C, 10 mM HEPES pH 7.2, 150 mM NaCl, 0.05% Tween-20, 0.1% BSA; KD from equilibrium responses assuming 50 to 100% active surface
Sequence of mRobo1 ectodomain (mouse) (O89026 30-840): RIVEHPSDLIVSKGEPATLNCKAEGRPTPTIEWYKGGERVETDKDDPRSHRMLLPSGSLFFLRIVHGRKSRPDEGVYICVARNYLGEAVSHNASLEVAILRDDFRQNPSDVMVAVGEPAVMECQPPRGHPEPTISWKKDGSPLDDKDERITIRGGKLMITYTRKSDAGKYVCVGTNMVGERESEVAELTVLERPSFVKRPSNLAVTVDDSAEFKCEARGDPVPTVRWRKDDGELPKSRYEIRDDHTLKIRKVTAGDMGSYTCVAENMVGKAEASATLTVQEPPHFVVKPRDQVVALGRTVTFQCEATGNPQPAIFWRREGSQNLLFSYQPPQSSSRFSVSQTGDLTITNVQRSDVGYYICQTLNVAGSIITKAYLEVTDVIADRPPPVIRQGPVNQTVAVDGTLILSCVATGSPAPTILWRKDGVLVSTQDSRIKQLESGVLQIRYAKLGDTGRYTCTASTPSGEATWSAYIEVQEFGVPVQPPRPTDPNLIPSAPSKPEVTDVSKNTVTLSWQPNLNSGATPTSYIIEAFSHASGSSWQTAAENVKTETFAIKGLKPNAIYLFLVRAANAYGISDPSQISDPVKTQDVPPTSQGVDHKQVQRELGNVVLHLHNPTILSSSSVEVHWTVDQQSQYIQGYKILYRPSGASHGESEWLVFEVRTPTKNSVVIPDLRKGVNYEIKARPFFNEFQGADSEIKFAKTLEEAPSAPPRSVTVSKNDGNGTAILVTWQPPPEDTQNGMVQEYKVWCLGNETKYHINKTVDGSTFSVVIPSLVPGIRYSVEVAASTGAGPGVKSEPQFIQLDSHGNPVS

[7] = molecular target: mRobo1 ectodomain (mouse) (UniProt O89026); experiment: as above; remark: listed apart in the source
[8] = molecular target: mRobo3 FN1-3 (mouse); experiment: SPR; biotinylated mRobo3 FN1-3 on a Biacore SA chip; mNELL2 EGF1-6 WT and mutants as analytes over the same channel; 20 s 10 mM EDTA pH 8, 150 mM NaCl between runs; 25 °C, 10 mM HEPES pH 7.2, 150 mM NaCl, 0.05% Tween-20, 0.1% BSA; equilibrium, 1:1 Langmuir
[9] = molecular target: mRobo1 FN1-3 (mouse) (UniProt O89026); experiment: SPR; mRobo1 FN1-3 (NHS-biotin on the N-terminal amine, 315 RU) on a Biacore SA chip; mNELL2 EGF1-6 as analyte; 25 °C, 10 mM HEPES pH 7.2, 150 mM NaCl, 0.05% Tween-20, 0.1% BSA; 1:1 Langmuir
Sequence of mRobo1 FN1-3 (mouse) (O89026 519-840): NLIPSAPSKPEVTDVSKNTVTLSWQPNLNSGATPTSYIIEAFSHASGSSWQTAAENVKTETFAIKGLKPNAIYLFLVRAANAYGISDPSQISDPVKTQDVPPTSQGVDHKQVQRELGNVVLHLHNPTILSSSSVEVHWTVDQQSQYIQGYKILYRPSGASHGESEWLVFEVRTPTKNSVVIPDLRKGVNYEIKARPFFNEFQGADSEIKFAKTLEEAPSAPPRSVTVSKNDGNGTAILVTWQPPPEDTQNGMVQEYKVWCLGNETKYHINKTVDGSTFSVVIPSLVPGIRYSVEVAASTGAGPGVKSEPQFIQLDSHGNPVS

[10] = molecular target: mNELL2ΔCC (mouse); experiment: SPR; mNELL2 or mNELL2ΔCC (100 RU each, NHS-biotin) on a Biacore Series S SA chip; mRobo3 ECD or mRobo3 FN1 as analyte; regeneration with 10 mM EDTA; equilibrium analysis
[11] = molecular target: mNELL2ΔCC (mouse); experiment: as above; remark: listed apart in the source
[12] = molecular target: mNELL2 (full length) (mouse); experiment: as above
[13] = molecular target: mNELL2 (full length) (mouse); experiment: SEC; mNELL2 with excess mRobo3 FN1 on Superose 6 10/300; complex fractions quantified by fluorescent anti-His western blot against 1:1 standards
[14] = molecular target: biotinylated mouse Robo3 FN1–3 (Avi-tagged) (mouse) (UniProt Q9Z2I4); experiment: SPR; biotinylated mRobo3 FN1–3 captured on an SA chip (Biacore); mNELL2 EGF1–6 WT and mutants as analyte; 25 °C, 10 mM HEPES pH 7.2, 150 mM NaCl, 0.05% Tween-20, 0.1% BSA; 1:1 Langmuir isotherm
Sequence of biotinylated mouse Robo3 FN1–3 (Avi-tagged) (mouse) (Q9Z2I4 558-869): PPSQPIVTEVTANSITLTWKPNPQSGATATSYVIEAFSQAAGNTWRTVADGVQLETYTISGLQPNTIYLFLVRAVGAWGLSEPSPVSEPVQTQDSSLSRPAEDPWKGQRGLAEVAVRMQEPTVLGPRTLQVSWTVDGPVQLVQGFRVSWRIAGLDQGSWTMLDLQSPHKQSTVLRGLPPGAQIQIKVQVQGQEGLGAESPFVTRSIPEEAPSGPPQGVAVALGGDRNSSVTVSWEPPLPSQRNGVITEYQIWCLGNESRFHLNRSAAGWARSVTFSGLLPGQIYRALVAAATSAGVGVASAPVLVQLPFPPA

Sequence of full-length mouse NELL2 (Q61220 25-819): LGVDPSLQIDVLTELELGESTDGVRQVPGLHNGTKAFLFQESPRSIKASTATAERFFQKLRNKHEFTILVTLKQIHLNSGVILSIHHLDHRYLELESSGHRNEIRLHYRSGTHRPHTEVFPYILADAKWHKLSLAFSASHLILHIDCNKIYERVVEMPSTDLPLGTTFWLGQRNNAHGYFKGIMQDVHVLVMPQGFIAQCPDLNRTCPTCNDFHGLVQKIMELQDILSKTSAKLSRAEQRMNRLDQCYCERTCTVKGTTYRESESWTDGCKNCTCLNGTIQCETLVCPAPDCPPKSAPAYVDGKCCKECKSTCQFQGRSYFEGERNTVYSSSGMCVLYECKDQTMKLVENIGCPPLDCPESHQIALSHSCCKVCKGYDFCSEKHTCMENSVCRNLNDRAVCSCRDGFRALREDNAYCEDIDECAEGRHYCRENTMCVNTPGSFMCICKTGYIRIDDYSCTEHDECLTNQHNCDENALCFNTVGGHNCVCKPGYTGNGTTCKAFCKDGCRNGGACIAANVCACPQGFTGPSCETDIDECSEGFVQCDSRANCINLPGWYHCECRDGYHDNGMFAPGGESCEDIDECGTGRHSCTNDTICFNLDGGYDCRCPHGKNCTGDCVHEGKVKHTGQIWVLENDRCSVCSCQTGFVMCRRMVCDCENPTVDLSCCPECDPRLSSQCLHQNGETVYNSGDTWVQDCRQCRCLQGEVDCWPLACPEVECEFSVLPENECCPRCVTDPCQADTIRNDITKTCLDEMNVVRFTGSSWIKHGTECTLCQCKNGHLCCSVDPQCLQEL

Substance: NELL2, full length (Supplementary Fig. 9c; species not stated) (from UniProt Q99435 22-816) (ligand)
stoichiometry N [1]: 3

Substance: mNELL2 (full length) (ligand)
stoichiometry N [3]: 3
Kd [4]: 470 nM
Kd [5]: 940 nM
Kd [6]: 350 µM
Kd [7]: > 100 µM

Substance: mNELL2 EGF1-6 R448A/Y450A (domain or fragment)
Kd [8]: 87000 nM

Substance: mNELL2 EGF1-6 R452A (domain or fragment)
Kd [8]: 1700 nM

Substance: mRobo3 ectodomain (domain or fragment)
Kd [11]: 1800 nM
Kd [12]: 890 nM

Substance: mouse NELL2 EGF1–6 L498A/F500A (domain or fragment)
Kd [14]: > 100000 nM
fold reduction of affinity against wild-type mNELL2 [14]: 500 fold

Substance: mouse NELL2 EGF1–6 R448A/Y450A (domain or fragment)
fold reduction of affinity against wild-type mNELL2 [14]: 120 fold

Substance: mouse NELL2 EGF1–6 R452A (domain or fragment)
Kd [14]: 1700 nM
fold reduction of affinity against wild-type mNELL2 [14]: 2.4 fold

Substance: mouse NELL2 EGF1–6 V509A (domain or fragment)
Kd [14]: 1700 nM
fold reduction of affinity against wild-type mNELL2 [14]: 2.4 fold

Second part, the substance after the results:

Kd [2]: 500 to 1000 nM
Substance: full-length mouse NELL2 (from UniProt Q61220 25-819) (ligand)

Kd [8]: 1700 nM
Substance: mNELL2 EGF1-6 V509A (domain or fragment)

Kd [4]: 1700 nM
Kd [5]: 1700 nM
Kd [9]: 13.8 µM
Kd [8]: 710 nM
Substance: mNELL2 EGF1-6 WT (domain or fragment)

Kd [10]: 710 nM and 890 nM
Kd [11]: 720 nM
Kd [12]: 510 nM
stoichiometry N (mNELL2:mRobo3 FN1 (molar ratio)) [13]: 1.16
Substance: mRobo3 FN1 (domain or fragment)
